Experimental data taken from PMC12847774, “SERPINB3 enhances NPM1 sumoylation via inhibiting SENP3’s activity and promotes lung tumorigenesis” (Cell Death & Disease, 2025).

Target: T1, SENP3 purified protein (UniProt Q9H4L4 1-574)
T1 construct: SENP3; cloned into pET-28a(+) between BamHI and HindIII; also called wild-type SENP3; pET-28a (+)-SENP3; source: E. coli Rosetta (DE3), purified (Ni-NTA)
Assay: co-IP; in vitro immunoprecipitation with Flag antibody using purified recombinant proteins
Conditions: both partners purified

T1 sequence (Q9H4L4 whole entry): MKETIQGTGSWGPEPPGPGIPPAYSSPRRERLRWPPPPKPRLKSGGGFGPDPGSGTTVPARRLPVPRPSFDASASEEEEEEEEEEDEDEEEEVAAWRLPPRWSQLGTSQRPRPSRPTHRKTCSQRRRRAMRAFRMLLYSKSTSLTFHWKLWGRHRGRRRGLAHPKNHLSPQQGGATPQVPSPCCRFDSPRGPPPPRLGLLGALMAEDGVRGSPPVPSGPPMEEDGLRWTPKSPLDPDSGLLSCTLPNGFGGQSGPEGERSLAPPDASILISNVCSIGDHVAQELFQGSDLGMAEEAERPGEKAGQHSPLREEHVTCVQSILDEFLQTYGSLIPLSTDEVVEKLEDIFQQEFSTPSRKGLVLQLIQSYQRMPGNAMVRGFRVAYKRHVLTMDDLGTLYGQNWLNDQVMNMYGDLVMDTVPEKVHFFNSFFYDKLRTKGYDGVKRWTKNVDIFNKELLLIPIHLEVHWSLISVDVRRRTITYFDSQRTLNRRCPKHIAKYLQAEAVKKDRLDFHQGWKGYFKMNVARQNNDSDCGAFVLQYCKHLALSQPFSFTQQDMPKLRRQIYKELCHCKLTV

binding result: binds
B1: Flag-SERPINB3 purified protein (natural protein, UniProt P29508 1-390, looked up)
chain: MNSLSEANTKFMFDLFQQFRKSKENNIFYSPISITSALGMVLLGAKDNTAQQIKKVLHFDQVTENTTGKAATYHVDRSGNVHHQFQKLLTEFNKSTDAYELKIANKLFGEKTYLFLQEYLDAIKKFYQTSVESVDFANAPEESRKKINSWVESQTNEKIKNLIPEGNIGSNTTLVLVNAIYFKGQWEKKFNKEDTKEEKFWPNKNTYKSIQMMRQYTSFHFASLEDVQAKVLEIPYKGKDLSMIVLLPNEIDGLQKLEEKLTAEKLMEWTSLQNMRETRVDLHLPRFKVEESYDLKDTLRTMGMVDIFNGDADLSGMTGSRGLVLSGVLHKAFVEVTEEGAEAAAATAVVGFGSSPTSTNEEFHCNHPFLFFIRQNKTNSILFYGRFSSP
notes: SERPINB3; cloned into pET-28a(+) between BamHI and HindIII; the methods name only pET-28a (+)-SERPINB3; also called SCCA1; pET-28a (+)-SERPINB3; source: E. coli BL21(DE3), purified (Ni-NTA)
